Measured values reported in patent US20150307625A1 (Bayer, published 2015).

T1: mouse Protein C (zymogen) (mouse, UniProt P33587 42-460)
T1 construct: mature; also called mouse PC
T1 sequence (looked up): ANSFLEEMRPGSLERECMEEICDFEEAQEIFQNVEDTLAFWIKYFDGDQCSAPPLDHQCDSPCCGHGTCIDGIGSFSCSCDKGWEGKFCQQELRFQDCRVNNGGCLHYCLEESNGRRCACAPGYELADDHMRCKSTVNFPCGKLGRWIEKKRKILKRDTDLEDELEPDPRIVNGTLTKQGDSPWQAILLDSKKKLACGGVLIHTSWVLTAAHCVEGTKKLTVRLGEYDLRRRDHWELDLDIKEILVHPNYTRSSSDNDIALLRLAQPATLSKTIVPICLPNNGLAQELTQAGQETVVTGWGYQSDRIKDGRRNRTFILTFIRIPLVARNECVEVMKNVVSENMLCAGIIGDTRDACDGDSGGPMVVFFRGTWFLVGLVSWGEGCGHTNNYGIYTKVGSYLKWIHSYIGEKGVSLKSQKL

T2: dog activated Protein C (dog, UniProt Q28278 43-456)
T2 construct: mature; also called dog aPC; dAPC
T2 sequence (looked up): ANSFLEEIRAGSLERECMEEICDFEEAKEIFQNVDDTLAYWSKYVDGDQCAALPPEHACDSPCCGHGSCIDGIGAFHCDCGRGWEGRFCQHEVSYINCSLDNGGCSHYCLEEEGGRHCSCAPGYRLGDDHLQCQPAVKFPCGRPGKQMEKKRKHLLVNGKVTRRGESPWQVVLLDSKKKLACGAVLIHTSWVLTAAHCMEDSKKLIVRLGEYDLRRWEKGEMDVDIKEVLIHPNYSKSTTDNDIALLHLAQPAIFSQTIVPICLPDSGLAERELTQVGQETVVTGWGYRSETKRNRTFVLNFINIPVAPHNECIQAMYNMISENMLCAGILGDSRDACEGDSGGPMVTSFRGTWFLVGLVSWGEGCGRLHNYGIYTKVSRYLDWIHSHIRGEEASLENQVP

T3: dog Protein C (zymogen) (dog, UniProt Q28278 43-456)
T3 construct: mature; also called dog PC
T3 sequence (looked up): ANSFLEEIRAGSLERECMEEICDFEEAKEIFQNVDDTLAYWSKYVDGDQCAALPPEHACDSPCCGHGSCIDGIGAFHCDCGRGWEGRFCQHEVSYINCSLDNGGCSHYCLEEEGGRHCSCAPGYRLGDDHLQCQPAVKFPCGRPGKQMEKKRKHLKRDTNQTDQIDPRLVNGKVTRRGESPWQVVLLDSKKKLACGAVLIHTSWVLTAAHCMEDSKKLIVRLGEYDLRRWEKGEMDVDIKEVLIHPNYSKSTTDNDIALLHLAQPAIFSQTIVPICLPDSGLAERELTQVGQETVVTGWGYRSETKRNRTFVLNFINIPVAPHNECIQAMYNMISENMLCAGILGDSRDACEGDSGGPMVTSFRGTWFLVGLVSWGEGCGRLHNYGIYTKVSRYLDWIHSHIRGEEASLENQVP

B1: C7A23 Fab (Fab, V domains shown)
VH: EVQLLESGGGLVQPGGSLRLSCAASGFTFGNHWMTWVRQAPGKGLEWVSGVSWNGSRTHYADSVKGRFTISRDNSKNTLYLQMNSLRAEDTAVYYCALTGRSGWMRFPNWFDPWGQGTLVTVTS
VL: QSVLTQPPSASGTPGQRVTISCSGSSSNIGNNYVSWYQQLPGTAPKLLIYRNNQRPSGVPDRFSGSKSGTSASLAISGLRSEDEADYYCQSYDSDLSGPYVLFGGGTKLTVLG
notes: Human Fab (lambda) from a phage library, expressed in E. coli
B2: C22J13 Fab (Fab, V domains shown)
VH: EVQLLESGGGLVQPGGSLRLSCAASGFTFSSNYMSWVRQAPGKGLEWVAVISYDGSNKYYADSVKGRFTISRDNSKNTLYLQMNSLRAEDTAMYYCALTGRSGWMRFPNWFDPWGQGTLVTVTS
VL: QSVLTQPPSASGTPGQRVTISCSGSDSNIGSNAVNWYQQLPGTAPKLLIYDNNKRPSGVPDRFSGSKSGTSASLAISGLRSEDEADYYCSSYTSSNTVVFGGGTKLTVLG
notes: as for B1
B3: C26B9 Fab (Fab, V domains shown)
VH: EVQLLESGGGLVQPGGSLRLSCAASGFTFSSYGMHWVRQAPGKGLEWVSVIYSGGSTYYADSVKGRFTISRDNSKNTLYLQMNSLRAEDTAVYYCARMGRAFDIWGQGTLVTVTS
VL: QSVLTQPPSASGTPGQRVTISCSGSSSNIRSNTVNWYQQLPGTAPKLLIYGNSNRPSGVPDRFSGSKSGTSASLAISGLRSEDEADYYCQSYDSSLSGDVVFGGGTKLTVLG
notes: as for B1
B4: C26B9 hIgG1 (antibody, V domains shown)
VH: B3 VH
VL: B3 VL
B5: R41C17 Fab (Fab, V domains shown)
VH: EVQLLESGGGLVQPGGSLRLSCAASGFTFSNYAMSWVRQSPGKGLEWVAVISYDGREKYYSDSVKGRFTISRDNSKNTLYLQMNSLRAEDTAVYYCARDRGRTFDYWGQGTLVTVTS
VL: LTQPPSASGTPGQRVTISCTGSSSNIGAGYVVHWYQQLPGTAPKLLIYRNNHRPSGVPDRFSGSKSGTSASLAISGLRSEDEADYYCAAWDDSLNGRVFGGGTKLTVLG
notes: Human Fab (lambda), expressed in E. coli; also called R4117
B6: R41C17 hIgG1 (antibody, V domains shown)
VH: B5 VH
VL: B5 VL
B7: T46P19 Fab (Fab, V domains shown)
VH: EVQLLESGGGLVQPGGSLRLSCAASGFTFSGYGMHWVRQAPGKGLEWVSGINWNGGSTGYADSVKGRFTISRDNSKNTLYLQMNSLRAEDTAVYYCARNRATRSGYYYFDSWGQGTLVTVTS
VL: LTQPPSASGTPGQRVTISCTGSSSNIGAGYDVHWYQQLPGTAPKLLIYGNINRPSGVPDRFSGSKSGTSASLAISGLRSEDEADYYCSSYTRSATLVFGGGTKLTVLG
notes: Human Fab (lambda), expressed in E. coli
B8: T46P19 hIgG1 (antibody, V domains shown)
VH: B7 VH
VL: B7 VL
B9: O3E7 hIgG1 (antibody, V domains shown)
VH: EVQLLESGGGLVQPGGSLRLSCAASGFTFSSYSMNWVRQAPGKGLEWVSAISGSGGSTYYADSVKGRFTISRDNSKNTLYLQMNSLRAEDTAVYYCARDRRVRGIYDAFDMWGQGTLVTVTS
VL: QSVLTQPPSTSGTPGQRVTISCTGSSSNIGAGFDVHWYQQLPGTAPKLLIYGNSNRPSGVPDRFSGSKSGTSASLAISGLRSEDEADYYCATWQDTLTGWMFGGGTKLTVLG
notes: also called O3E7-IgG; 03E7

Assays:
[1] = biological target: T1, mouse Protein C (zymogen); assay: direct ELISA, mPC coated at 10 ug/ml, Fab at 20 nM, anti-human Fab-HRP, AmplexRed (RFU)
Experimental: (§1) To determine the binding selectivity of these fabs, their binding activities to the proenzyme human PC, to thrombin (FIIa), and to the activated Factor II (FIIa, thrombin), Factor VII (FVIIa), Factor IX (FIXa), and Factor X (FXa) were also assessed by ELISA. Briefly, an ELISA plate was coated with human aPC at 1 ug/ml, mouse PC at 10 ug/ml, dog PC at 10 ug/ml, other coagulation factors (FIIa, FVIIa, FIXa, FXa) at 5-10 ug/ml. Anti-aPC Fabs were added to the wells at 20 nM (1 ug/ml). Bound Fabs were detected by the secondary antibody (anti-human Fab-HRP) followed by HRP substrate AmplexRed.

[2] = biological target: T2, dog activated Protein C; assay: Biacore, Fab
[3] = biological target: T2, dog activated Protein C; assay: direct ELISA, antigen coated, Fab
[4] = biological target: T3, dog Protein C (zymogen); assay: direct ELISA, dPC coated at 10 ug/ml, Fab at 20 nM, anti-human Fab-HRP, AmplexRed (RFU)
Experimental: as §1

[5] = biological target: T4, human activated Protein C (human, UniProt P04070 43-461); assay: Biacore, Fab
T4 construct: also called human aPC; hAPC

[6] = biological target: T4, human activated Protein C; assay: direct ELISA, antigen coated, Fab
[7] = biological target: T5, human Protein C (zymogen) (human, UniProt P04070 43-461); assay: direct ELISA, antigen coated at 100 ng/well, Fab at 20 nM (1 ug/ml), anti-human Fab-HRP, AmplexRed (RFU)
T5 construct: also called human PC; hPC
Experimental: (§2) FIG. 3 depicts a graph characterizing anti-APC Fabs by direct ELISA. An ELISA plate was coated with human PC (hPC), human aPC (hAPC), dog aPC (dAPC), mouse aPC (mAPC) at 100 ng per well. Purified Fabs designate on the X-axis were added to the plate at 20 nM (1 ug/ml). Bound Fab was detected by the secondary antibody (anti-human Fab-HRP) followed by HRP substrate AmplexRed. The purified Fabs preferentially bind to human aPC and, with the exception of Fab R41C17, show little to no binding to human PC.
(§3) Antigens were coated directly on ELISA plates. Coating antigens included human PC (plasma-derived), human aPC (recombinant), dog aPC (plasma-derived), and mouse aPC (recombinant) at 100 ng/well in PBS/Ca buffer. After blocking the plate with 5% milk/PBS and washing the plate with PBS-Tween20, soluble Fabs (1 ug/ml, 20 nM) were added to the plate and incubated for 1 h at RT with shaking. Fab binding was detected with anti-human Fab (lambda) antibody-HRP and Amplex red as substrate. […] In contrast, R41C17 binds to both human APC and human PC. Also shown in FIG. 3 is cross-species reactivity of Fabs by ELISA.

[8] = biological target: T2, dog activated Protein C; assay: as above
Experimental: as §2, §3

[9] = biological target: T4, human activated Protein C; assay: direct ELISA, aPC coated, hIgG1
[10] = biological target: T2, dog activated Protein C; assay: direct ELISA, antigen coated at 1 ug/ml, IgG at 20 nM, anti-human IgG-HRP, AmplexRed (RFU)
[11] = biological target: T5, human Protein C (zymogen); assay: as above

Binder	binding result [1]	binding result [4]	Kd [5] [nM]	EC50 [6] [nM]	binding result [7]	binding result [8]	EC50 [9] [nM]	binding result [10]	also measured
B1	no binding (tested: 20 nM)	no binding (tested: 20 nM)							Kd [2]: 1.3 nM; EC50 [3]: 6 nM
B2	no binding (tested: 20 nM)		16	10.6	no binding (tested: 20 nM)				
B3	no binding (tested: 20 nM)	no binding (tested: 20 nM)	7.9	10.3	no binding (tested: 20 nM)	no binding (tested: 20 nM)			
B4							0.65	no binding (tested: 20 nM)	binding result [11]: no binding (tested: 20 nM)
B5	no binding (tested: 20 nM)	no binding (tested: 20 nM)	4.8	8.6		no binding (tested: 20 nM)			
B6							0.55	no binding (tested: 20 nM)	
B7	no binding (tested: 20 nM)	no binding (tested: 20 nM)	7.2	10.3	no binding (tested: 20 nM)	no binding (tested: 20 nM)			
B8							0.37	no binding (tested: 20 nM)	binding result [11]: no binding (tested: 20 nM)
B9							16.9		
